Our source for the VEGF induced cell integrity loss IC50 values is US20230416378A1.

This assay addresses recombinant human VEGF-A (human) (UniProt P15692). The assay is described as follows: cell-based or functional assay.

Sequence of recombinant human VEGF-A (human) (P15692 other isoform, or with tags, fused parts or gaps limits assumed): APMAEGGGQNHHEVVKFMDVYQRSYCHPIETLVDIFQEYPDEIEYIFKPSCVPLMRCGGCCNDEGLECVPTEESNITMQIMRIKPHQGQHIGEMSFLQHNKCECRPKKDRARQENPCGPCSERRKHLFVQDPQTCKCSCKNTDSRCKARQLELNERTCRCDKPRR

For the substance “Eylea (aflibercept), VEGF trap (Fc fusion)”, the VEGF induced cell integrity loss IC50 came to 330 pM.
